Source: patent US20140087995A1 (published 2014)
Each block holds one binder with its values, some of them ahead of it. Numbered stars: 1 amine (or outer) side, 2 acyl side, 3 side chain; on linkers, the order of the positions; unused ones are H or OH. Bridge positions count the residues as written; N and C are the ends. Side chains are listed from the residue outwards. Ends that are not written are not given here. * marks the point of attachment. C20 diacid = O=C(O)CCCCCCCCCCCCCCCCCCC(=O)*; γGlu = O=C(O)[C@H](CCC(=O)[*:2])N[*:1]; AEEA = NCCOCCOCC(=O)O

Assays:
[1] = biological target: T1, human calcitonin receptor (human, UniProt P30988 25-474); assay: SPA radioligand competition (125I-calcitonin), membranes of BHK cells with human calcitonin receptor
T1 construct: whole, on cells; also called hCTR; hCT
T1 sequence (looked up): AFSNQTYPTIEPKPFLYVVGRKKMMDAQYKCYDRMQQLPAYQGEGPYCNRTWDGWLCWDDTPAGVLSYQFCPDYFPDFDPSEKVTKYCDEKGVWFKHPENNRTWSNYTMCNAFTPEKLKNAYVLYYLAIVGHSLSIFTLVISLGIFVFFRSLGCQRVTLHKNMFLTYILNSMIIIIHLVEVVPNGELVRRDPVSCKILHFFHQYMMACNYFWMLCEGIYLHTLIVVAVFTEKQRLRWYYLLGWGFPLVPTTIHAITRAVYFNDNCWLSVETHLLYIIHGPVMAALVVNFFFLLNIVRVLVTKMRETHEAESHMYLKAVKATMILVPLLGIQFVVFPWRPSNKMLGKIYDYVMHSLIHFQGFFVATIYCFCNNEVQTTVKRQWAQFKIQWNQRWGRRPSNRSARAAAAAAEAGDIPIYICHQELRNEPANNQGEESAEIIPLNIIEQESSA
Procedure, shortened: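 BHK hCTR membranes 35 ng/μL + SPA beads 0.05 mg/well; buffer 50 mM Hepes pH 7.4, 1 mM CaCl2, 5 mM MgCl₂, 0.1% OA, 0.02% Tween20. 120 min, 25° C., shaking. Scintillation count; IC50 by one-site binding competition.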

[2] = biological target: T1, human calcitonin receptor; assay: ratio of IC50 at human calcitonin receptor to IC50 at human amylin receptor (SPA competition assays)
Procedure, shortened: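 Membranes (35 ng/μL final) + SPA beads, 50 mM Hepes pH 7.4 buffer with 1 mM CaCl2, 5 mM MgCl₂, 0.1% OA, 0.02% Tween20; 120 min, 25° C, shaking; centrifuged, counted; IC₅₀ by one-site binding competition.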

IC50 [1]: 88.9 nM | Ratio hCT/hAmylin binding [2]: 120
B1: N^ε1-[2-[2-[2-[[(4S)-4-carboxy-4-(19-carboxynonadecanoylamino)butanoyl]amino]ethoxy]ethoxy]acetyl]-[His14,Arg17,Pro21,Pro27,Arg34]-h-amylin (peptide)
peptide: K([AEEA-γGlu-C20 diacid])CNTATCATQRLAHFLRHSSPNFGAIPSSTNVGRNTY-NH2
modifications: disulfide 2-7; N-terminus assumed
SMILES: CC[C@H](C)[C@H](NC(=O)[C@H](C)NC(=O)CNC(=O)[C@H](Cc1ccccc1)NC(=O)[C@H](CC(N)=O)NC(=O)[C@@H]1CCCN1C(=O)[C@H](CO)NC(=O)[C@H](CO)NC(=O)[C@H](Cc1c[nH]cn1)NC(=O)[C@H](CCCNC(=N)N)NC(=O)[C@H](CC(C)C)NC(=O)[C@H](Cc1ccccc1)NC(=O)[C@H](Cc1c[nH]cn1)NC(=O)[C@H](C)NC(=O)[C@H](CC(C)C)NC(=O)[C@H](CCCNC(=N)N)NC(=O)[C@H](CCC(N)=O)NC(=O)[C@@H](NC(=O)[C@H](C)NC(=O)[C@@H]1CSSC[C@H](NC(=O)[C@@H](N)CCCCNC(=O)COCCOCCNC(=O)CC[C@H](NC(=O)CCCCCCCCCCCCCCCCCCC(=O)O)C(=O)O)C(=O)N[C@@H](CC(N)=O)C(=O)N[C@@H]([C@@H](C)O)C(=O)N[C@@H](C)C(=O)N[C@@H]([C@@H](C)O)C(=O)N1)[C@@H](C)O)C(=O)N1CCC[C@H]1C(=O)N[C@@H](CO)C(=O)N[C@@H](CO)C(=O)N[C@H](C(=O)N[C@@H](CC(N)=O)C(=O)N[C@H](C(=O)NCC(=O)N[C@@H](CCCNC(=N)N)C(=O)N[C@@H](CC(N)=O)C(=O)N[C@H](C(=O)N[C@@H](Cc1ccc(O)cc1)C(N)=O)[C@@H](C)O)C(C)C)[C@@H](C)O
notes: also called compound 84

IC50 [1]: 19.8 nM | Ratio hCT/hAmylin binding [2]: 68.1
B2: N^ε1-[2-[2-[2-[[(4S)-4-carboxy-4-(19-carboxynonadecanoylamino)butanoyl]amino]ethoxy]ethoxy]acetyl]-[His14,Arg17,Pro21,Pro27,His34]-h-amylin (peptide)
peptide: K([AEEA-γGlu-C20 diacid])CNTATCATQRLAHFLRHSSPNFGAIPSSTNVGHNTY-NH2
modifications: disulfide 2-7; N-terminus assumed
SMILES: CC[C@H](C)[C@H](NC(=O)[C@H](C)NC(=O)CNC(=O)[C@H](Cc1ccccc1)NC(=O)[C@H](CC(N)=O)NC(=O)[C@@H]1CCCN1C(=O)[C@H](CO)NC(=O)[C@H](CO)NC(=O)[C@H](Cc1c[nH]cn1)NC(=O)[C@H](CCCNC(=N)N)NC(=O)[C@H](CC(C)C)NC(=O)[C@H](Cc1ccccc1)NC(=O)[C@H](Cc1c[nH]cn1)NC(=O)[C@H](C)NC(=O)[C@H](CC(C)C)NC(=O)[C@H](CCCNC(=N)N)NC(=O)[C@H](CCC(N)=O)NC(=O)[C@@H](NC(=O)[C@H](C)NC(=O)[C@@H]1CSSC[C@H](NC(=O)[C@@H](N)CCCCNC(=O)COCCOCCNC(=O)CC[C@H](NC(=O)CCCCCCCCCCCCCCCCCCC(=O)O)C(=O)O)C(=O)N[C@@H](CC(N)=O)C(=O)N[C@@H]([C@@H](C)O)C(=O)N[C@@H](C)C(=O)N[C@@H]([C@@H](C)O)C(=O)N1)[C@@H](C)O)C(=O)N1CCC[C@H]1C(=O)N[C@@H](CO)C(=O)N[C@@H](CO)C(=O)N[C@H](C(=O)N[C@@H](CC(N)=O)C(=O)N[C@H](C(=O)NCC(=O)N[C@@H](Cc1c[nH]cn1)C(=O)N[C@@H](CC(N)=O)C(=O)N[C@H](C(=O)N[C@@H](Cc1ccc(O)cc1)C(N)=O)[C@@H](C)O)C(C)C)[C@@H](C)O
notes: also called compound 80
